Results on five substances are retold here after publication PMC3618186.

In experiment [1] the target is dynactin p150^Glued coiled-coil 1B (CC1B), residues 381–530 (R. norvegicus) (UniProt P28023). The experiment can be described thus: SEC; equimolar IC-TcTex1-LC8 complex and p150Glued fragment (CC1, CC1A, CC1B), alone or in combination, analytical Superdex 200 10/300 GL; fractions checked by SDS-PAGE. A general note: SEC sorts molecules by how far they enter the pores of the column.

Experiment [2] concerns the target dynactin p150^Glued coiled-coil 1 (CC1) (R. norvegicus) (UniProt P28023). The description is as above.
Experiment [3] has the same target. The experiment can be described thus: AUC; sedimentation equilibrium, CC1 + IC 1-124, 4°C, pH 8.0; model CC1 dimer + 2 IC, constant in M^2.
For experiment [4] the target is unchanged. The experiment can be described thus: AUC; sedimentation equilibrium, CC1 + IC 1-124, 4°C, pH 9.0; model CC1 dimer + 2 IC, constant in M^2.
For experiment [5] the target is unchanged. The experiment can be described thus: AUC; sedimentation equilibrium, CC1 + IC 1-124, 4°C, pH 7.0; model CC1 dimer + 2 IC, constant in M^2.
Experiment [6] deals with dynactin p150^Glued coiled-coil 1A (CC1A), residues 204–348 (R. norvegicus) (UniProt P28023). The experiment is described as follows: AUC; sedimentation equilibrium of admixtures of p150Glued fragment and IC 1-124, 4°C, 1x PBS, 1 mM TCEP; model p150 dimer + 2 IC -> dimer-IC2, constant in M^2; CC1A: 10 μM + 10 μM.
The target in experiment [7] is dynactin p150^Glued coiled-coil 1B (CC1B), residues 381–530 (R. norvegicus) (UniProt P28023). Described as above.
Experiment [8] has as its target dynactin p150^Glued coiled-coil 1 (CC1) (R. norvegicus) (UniProt P28023). Described as above.
Experiment [9] has the same target. The experiment is described as follows: AUC; sedimentation equilibrium, stoichiometric CC1 + IC 1-124, 4°C, 500 mM NaCl; model CC1 dimer + 2 IC, constant in M^2.
For experiment [10] the target is unchanged. The experiment can be described thus: AUC; sedimentation equilibrium, stoichiometric CC1 + IC 1-124, 4°C, 100 mM NaCl; model CC1 dimer + 2 IC, constant in M^2.
The target is the same in experiment [11]. The experiment can be described thus: AUC; sedimentation equilibrium, stoichiometric CC1 + IC 1-124, 4°C, 1000 mM NaCl; model CC1 dimer + 2 IC, constant in M^2.
Experiment [12] has the same target. The experiment is described as follows: AUC; sedimentation equilibrium, stoichiometric CC1 + IC 1-124, 4°C, 250 mM NaCl; model CC1 dimer + 2 IC, constant in M^2.
Experiment [13] addresses p150Glued CC1 (Drosophila melanogaster) (UniProt P13496). The experiment is described as follows: ITC. Particulars: cited from earlier work.
Experiment [14] has as its target dynactin p150^Glued coiled-coil 1 (CC1) (R. norvegicus) (UniProt P28023). The experiment is described as follows: AUC; sedimentation equilibrium of the p150Glued fragments alone, 4°C, 1x PBS, 1 mM TCEP; monomer-dimer model (dimer to monomers).
For experiment [15], the target named is Cytoplasmic dynein 1 intermediate chain 2, isoform 2C, N-terminal fragment IC1-124 (UniProt Q62871). The experiment can be described thus: sedimentation equilibrium analytical ultracentrifugation (Beckman-Coulter XLI, absorbance optics). The note with it: 4 °C.
Sequence of Cytoplasmic dynein 1 intermediate chain 2, isoform 2C, N-terminal fragment IC1-124 (Q62871 whole entry, the tested form may be a part, canonical isoform): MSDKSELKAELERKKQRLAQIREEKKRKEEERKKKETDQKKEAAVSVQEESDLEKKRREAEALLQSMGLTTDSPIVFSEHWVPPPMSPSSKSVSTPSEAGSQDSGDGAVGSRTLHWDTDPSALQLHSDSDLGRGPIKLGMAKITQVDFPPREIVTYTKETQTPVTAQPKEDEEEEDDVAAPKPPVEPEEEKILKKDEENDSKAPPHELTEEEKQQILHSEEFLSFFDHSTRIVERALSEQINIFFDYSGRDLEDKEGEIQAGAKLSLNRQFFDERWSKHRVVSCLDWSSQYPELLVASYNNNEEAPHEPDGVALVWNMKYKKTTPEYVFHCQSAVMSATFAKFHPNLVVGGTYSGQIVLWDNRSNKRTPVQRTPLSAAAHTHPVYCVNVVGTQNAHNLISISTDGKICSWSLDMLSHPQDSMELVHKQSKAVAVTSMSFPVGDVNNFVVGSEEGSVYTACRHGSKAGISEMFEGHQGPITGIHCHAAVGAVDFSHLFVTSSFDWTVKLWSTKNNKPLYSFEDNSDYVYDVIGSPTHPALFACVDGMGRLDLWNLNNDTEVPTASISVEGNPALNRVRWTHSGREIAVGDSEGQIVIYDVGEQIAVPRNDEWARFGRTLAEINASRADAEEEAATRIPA

Sequence of p150Glued CC1 (Drosophila melanogaster) (P13496 221-509): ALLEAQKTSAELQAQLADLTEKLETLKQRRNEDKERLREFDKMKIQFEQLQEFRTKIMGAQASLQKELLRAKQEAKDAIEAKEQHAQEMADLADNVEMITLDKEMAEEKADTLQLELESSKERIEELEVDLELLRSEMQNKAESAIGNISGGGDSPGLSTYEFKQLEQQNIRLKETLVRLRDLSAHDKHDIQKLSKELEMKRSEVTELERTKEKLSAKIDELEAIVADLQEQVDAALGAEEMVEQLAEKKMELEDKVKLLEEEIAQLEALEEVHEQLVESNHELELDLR
Sequence of dynein intermediate chain (Q24246 whole entry): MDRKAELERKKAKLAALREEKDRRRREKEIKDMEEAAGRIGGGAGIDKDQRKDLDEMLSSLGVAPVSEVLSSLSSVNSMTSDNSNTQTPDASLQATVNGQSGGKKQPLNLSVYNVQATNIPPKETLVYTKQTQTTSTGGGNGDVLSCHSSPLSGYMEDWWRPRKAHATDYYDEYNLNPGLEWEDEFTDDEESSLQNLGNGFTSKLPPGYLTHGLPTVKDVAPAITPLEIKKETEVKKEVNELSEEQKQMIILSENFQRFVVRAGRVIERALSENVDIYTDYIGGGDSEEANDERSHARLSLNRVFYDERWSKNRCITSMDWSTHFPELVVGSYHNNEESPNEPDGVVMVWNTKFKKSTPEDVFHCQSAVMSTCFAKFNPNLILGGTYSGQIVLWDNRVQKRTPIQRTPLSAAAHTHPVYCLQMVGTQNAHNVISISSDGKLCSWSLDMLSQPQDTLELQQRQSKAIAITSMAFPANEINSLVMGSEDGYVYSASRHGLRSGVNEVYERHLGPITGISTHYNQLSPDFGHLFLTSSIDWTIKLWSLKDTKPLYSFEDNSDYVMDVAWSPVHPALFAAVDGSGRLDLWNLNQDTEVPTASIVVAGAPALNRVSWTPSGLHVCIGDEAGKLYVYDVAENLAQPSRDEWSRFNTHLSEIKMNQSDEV

For “IC2B^1–158-TcTex1-LC8 complex (from UniProt Q9Z336 1-113; P63170 1-89)”, the change in elution volume of the IC complex was 1.26 mL in [1] and 2.22 mL in experiment [2].

“dynein intermediate chain isoform 2C, residues 1–124 (domain or fragment)”: the overall dissociation constant, p150 dimer + 2 IC in experiment [3] was less than 1e-14 M^2; in [4], less than 1e-12 M^2; in [5], less than 1e-13 M^2; in [6] it was more than 1e-10 M^2; in [8], less than 1e-15 M^2; in [9], 1e-10 M^2. Moreover, the overall dissociation constant, p150 dimer + 2 IC in [10] was more than 1e-15 M^2; in experiment [11] it was 1e-08 M^2; in experiment [12], 1e-12 M^2. For the same substance, in experiment [7], the overall dissociation constant on the scale of Figure S4B (scale not told, presumably -log10) is 12. Also, the stoichiometry N (IC per CC1B dimer) in experiment [7] stood at 2. Also, the stoichiometry N (IC per CC1 dimer) in experiment [8] was 2.

The term Kd denotes the free concentration of one partner at which half of the binding sites on the other are occupied at equilibrium, for simple one-to-one binding. Consider “dynein intermediate chain (from UniProt Q24246)”, for which the Kd in experiment [13] was 3.5 µM.

One may read the stoichiometry N as a count of units in the complex or per binding partner. For “dynactin p150^Glued coiled-coil 1 (CC1) (from UniProt P28023 204-530) (domain or fragment)”, in experiment [14], the Kd is less than 0.001 µM and the stoichiometry N was determined as 2.

Regarding “Dynactin subunit 1 (p150Glued) CC1 fragment”, the dissociation constant was ≤10^−13 M^2 in [15] (pH 7.0, not stated (pH series 6.0, 7.0, 8.0, 9.0; buffer substances not named)); <10^−15 M^2 in [15] (pH 7.4, 1x PBS: 137 mM NaCl, 2.7 mM KCl, 1x PBS (4.3 mM Na2HPO4, 1.47 mM KH2PO4, pH 7.4)); ≤10^−14 M^2 in experiment [15] (pH 8.0, not stated (pH series 6.0, 7.0, 8.0, 9.0; buffer substances not named)); ≤10^−12 M^2 in experiment [15] (pH 9.0, not stated (pH series 6.0, 7.0, 8.0, 9.0; buffer substances not named)).
